Two substances from paper PMC2818508 can be followed below.

The target in assay [1] is Rac2 (prenylated Rac-GTP) (UniProt P15153). Nature of the assay: liposome co-sedimentation, WAVE2 quantified. The note with it: reference: WAVE2 complex, not PP2A treated.
Assay [2] deals with prenylated Rac2-GTP (UniProt P15153). Nature of the assay: co-sedimentation.

In the case of “WAVE2 (from UniProt Q9Y6W5) PP2A treated WAVE2 complex”, the “other: % of total WAVE2 bound” value in assay [1] is recorded as “same; reference 56”.

For “WAVE2 complex, PP2A treated (from UniProt Q9Y6W5 1-498; Q96F07 1-1278; Q9Y2A7 1-1128; Q8IZP0 1-508; Q8WUW1 1-75)”, in assay [2], the % bound (of total WAVE2) is 55% and the % bound (of total WAVE2; PIP3 liposomes + Rac-GTP) was found to be 79%.
